The chains are these.
B1: Bile acid receptor (Homo sapiens), Q96RI1 (parent)
chain: MVMQFQGLENPIQISPHCSCTPSGFFMEMMSMKPAKGVLTEQVAGPLGQNLEVEPYSQYSNVQFPQVQPQISSSSYYSNLGFYPQQPEEWYSPGIYELRRMPAETLYQGETEVAEMPVTKKPRMGASAGRIKGDELCVVCGDRASGYHYNALTCEGCKGFFRRSITKNAVYKCKNGGNCVMDMYMRRKCQECRLRKCKEMGMLAECMYTGLLTEIQCKSKRLRKNVKQHADQTVNEDSEGRDLRQVTSTTKSCREKTELTPDQQTLLHFIMDSYNKQRMPQEITNKILKEEFSAEENFLILTEMATNHVQVLVEFTKKLPGFQTLDHEDQIALLKGSAVEAMFLRSAEIFNKKLPSGHSDLLEERIRNSGISDEYITPMFSFYKSIGELKMTQEEYALLTAIVILSPDRQYIKDREAVEKLQEPLLDVLQKLCKIHQPENPQHFACLLGRLTELRTFNHHHAEMLMSWRVNDHKFTPLLCEIWDVQ
partner: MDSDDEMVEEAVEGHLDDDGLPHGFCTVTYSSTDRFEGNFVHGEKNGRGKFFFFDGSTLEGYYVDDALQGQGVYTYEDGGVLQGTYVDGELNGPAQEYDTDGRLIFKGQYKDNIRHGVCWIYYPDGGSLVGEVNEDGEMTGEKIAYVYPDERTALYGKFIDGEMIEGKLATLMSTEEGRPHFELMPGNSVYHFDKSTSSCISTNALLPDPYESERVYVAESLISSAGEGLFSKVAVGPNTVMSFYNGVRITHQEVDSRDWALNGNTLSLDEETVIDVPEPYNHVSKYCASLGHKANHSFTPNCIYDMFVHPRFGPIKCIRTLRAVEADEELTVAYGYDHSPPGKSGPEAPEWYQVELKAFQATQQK

The variants in this assay derive from B1. The note with it: with setd7_human SETD7, Q8WTS6.
In the case of MVMQFQGLENPIQISPHCSCTPSGFFMEMMSMKPAKGVLTEQVAGPLGQNLEVEPYSQYSNVQFPQVQPQISSSSYYSNLGFYPQQPEEWYSPGIYELRRMPAETLYQGETEVAEMPVTKKPRMGASAGRIKGDELCVVCGDRASGYHYNALTCEGCKGFFRRSITKNAVYKCKNGGNCVMDMYMRRKCQECRLRKCKEMGMLAECMYTGLLTEIQCKSRRLRKNVKQHADQTVNEDSEGRDLRQVTSTTKSCREKTELTPDQQTLLHFIMDSYNKQRMPQEITNKILKEEFSAEENFLILTEMATNHVQVLVEFTKKLPGFQTLDHEDQIALLKGSAVEAMFLRSAEIFNKKLPSGHSDLLEERIRNSGISDEYITPMFSFYKSIGELKMTQEEYALLTAIVILSPDRQYIKDREAVEKLQEPLLDVLQKLCKIHQPENPQHFACLLGRLTELRTFNHHHAEMLMSWRVNDHKFTPLLCEIWDVQ [K220R], the “effect of a mutation on the interaction” value is “decreasing interaction”.

The record behind these values is IntAct's records for PubMed 22345554.
